{
  "source": "paper PMC9812370",
  "about": "(Cell Reports, 2023)",
  "binders": {"B1": {"name": "Fab 4A8 (Fab, V domains shown)", "VH": "EVQLVESGAEVKKPGASVKVSCKVSGYTLTELSMHWVRQAPGKGLEWMGGFDPEDGETMYAQKFQGRVTMTEDTSTDTAYMELSSLRSEDTAVYYCATSTAVAGTPDLFDYYYGMDVWGQGTTVTVSS", "VL": "EIVMTQSPLSSPVTLGQPASISCRSSQSLVHSDGNTYLSWLQQRPGQPPRLLIYKISNRFSGVPDRFSGSGAGTDFTLKISRVEAEDVGVYYCTQATQFPYTFGQGTKVDIK"}},
  "target": "SARS-CoV-2 wild-type (D614G) HexaPro S protein ectodomain (SARS-CoV-2 Wuhan-Hu-1 with D614G …, D614G)",
  "assay": "ELISA",
  "data": [
    {"binder": "B1", "values": [
      {"measurement": "binding result", "result": "binds"}
    ]}
  ]
}
